Reference: the DeepSol protein solubility set

Experiment: soluble on expression in E. coli; label from the status in PepcDB or PDB records

Sequence | soluble on expression in E. coli
MIINKPSRVRPDGRGKVTGELKYMTDLSFPGMLYGKVLRSAYPHAEIVSVCTIKAEKMEGVQAVVTHKDVPGLNRFGIVIPDQPVLCEDRVRYVGDAIAAVAAETEEIAEAALELIQVEYKELEVMDSPEKALRPNAQRLHEDGNILHRAFFSNGDVEEGFQASDTVFEETYELPRQMHTYMETEGGVAVPEDDGGFTMYAGTQHGYKDRFQLARIFDIPEEKIRIVSSPMGGSFGGKDELNIQPYAALLALKSGRPVKIHQTRKESVRSGIKRHPMKITIKTGADHSGNLLAHDVKIVADTGAYATLGPAVLDFSVEHAAGPYRIPNIRTEGISVFTNNGVAGEFRGFGGNQITFALETHLDRLSGMLGIDPLELRRKNIRKPHDLGPLEHRIAPTDGAAQVLNAISKSPILKKTSRNCGYLQRGTGAAITMHGGGLGFGRMDAAGGRLSLSSEGKITASFGFEECGQGILAAIEQIVMEELGCAAEDISIVIGDTAKVPKSGSSTASRGTSMVWHAIQRLKKPFLAQLKKRAAEWSGCSAENLIPGAAGLRDKNTKALVVTYKELAEKGPLAEETAFDFPTTPDPVVGGHFLYSFGAAAVEVEVDLLTGDVKLIDCEHAIAAGPVVSPQGYRGQIEGGAAMALGYTLMEEAKMTDGRYAAENLDHYLIPGIKDVPDMKLIAIEDLMKGDVYGPRGVGEIGTIAITPAIVKAVHDAVGCWINKLPISREELLEAIDRKGLKQWT | not soluble
MIIVKNHKFKLDLLQNEANKEKFEGNTACSTAAYTLVREDASTGLTYTADISKVGNQISGEPAQRIKIREHRRIPKFDLPNLKVSKVYKLPLEASYAKGLLLLLIFCFGLSGCNTSKRLPYSHKYSYKELSKDDPHNLTYKGHYKVGKNYKIKGKTYKPHNPKSFTETGYASWYGGLKDGFHGKKTANGDRFNRNLLTAAHKTLPLPCLVKVTNKANNKAVILMVNDRGPFKKNRIIDVSQRAAEILAFKNQGITKVKIEYLPNETEKFLKNINLKKPQSKTLAKNSKKSSSNKVTNNNKCSVNCHIKLINLKYKLAVTP | soluble
MIKESTLHISFMAVRQTMRRVISRIVPPREVEDIVQETYVRICQVENKEAIKQPRSFLLKTAKNLAIDHLKRADIRLVDTVDNMAEFEHLVSADDAIYQQVATDKEFAQFCEAIRQLPIQCRKAFVLKKVYGYSQKEIAKKLAISESTVEKHIGLGVKRCTYFMMQLTKEERTETMKNSKKTHQVRRDL | not soluble
MIKKDYAQIKETLYTETLENGLKVYLLPKNDFQKTYGLFTTDYGSIDNTFVPIGQEEMIEVPDGIAHFLEHKMFEKEDGDVFQKFGQQGASANAFTSFTKTSYLFSTTDQVTQNLETLLDFVQSPYFTKETVEKEKGIIGQEIQMYLDDPNWRLFFGILGNLYPKHPLHIDIAGTVASIAEITAEDLYTCYNTFYHPSNMTLFVVGKMDPEALMAFIRENQAAKEFPAAQPIRRHFPEETAADIVKESAIEMTVTRAKVLVGLKGLDEVPTTGRDLMKYQVTVNLLLQLLFGNTSQNYLALYDEGLLDDSFSYDFNLDRSFHFADIGGDSEQPEVLAERIEAILLSATTSPELTEENLSLLKKKMIGKYFQSLNSLEYIANQFSQSLFGETTLFDKIEVIESIQLADVRQVAETFIREEGLSRFYMYPKGETEQ | not soluble
MIKKVIKRDGREKDFDILRIEHAIKKAEKSIEVNECWDDDALCDILMKIDETNLKKIEIEKVQDIVIDVLNKYNKNVAKAYSDYRKERTKIRQDKSNLMKIIDKIGVETDRDNANVGNNFSSKLLRIASESNKVHNLLK | not soluble
MIKMAQLEDIRKMYFMEGLSIREINRRTGIHRDTISKYISLEEPKPPKYKLTKERTHPVLGPYIPMIKQIIEDDKTRHRKQRHTGTKIFETLKKEGFSGGYNTVMDYLRKEYRKQREAFLPLEFELGAYAEVDWTEAYFYLKGKETKAHLFVMKLRGSGGFYVRAYPFEKQEAFFDGHIKCFEFMNG | not soluble
MIKNPKVLILTAHYGNGHVQVAKTLEQTFRQKGIEDVIVCDLFGESHPFITDITKYLYLKSYTIGKELYRLFYYGVEKIYDKKIASWYANFGRKRLKTLLQVEKPDIVINTFPIIAVPELKKQTGISIPVYNVLTDFCVHKIWIHREVDRYFVATDHVKELMVDIGVPAEQIVETGIPIRSSFELKVNPEIIYTKYQLCKNKKILLIVAGAHGVLGNVKELCQSFMSVPNLQVVVVCGKNEALKQDLLSLQKQNSDALKVFGYVENIDELFRVTSCMITKPGGITLSEAAALQVPVILYKPVPGQENENAMYFERKGAAVVIRDDSEVFAKTEALLQDDVKLLQMKEAMKSIYLPEPAGHIVDAILAENHAEPRHIPIKSPALAQSFTLEHHHHHH | not soluble
MIKQVGNTQINPLHRLTCHCGKVELELTLPNGIEKPRRCDCSMCRRRGAIVASVPLSGIRIVQGDDVLKLYQFNTHTAKHFFCSECGIYTHHQRRSDPSEYGYNVGCLEGVNPYELGDIEVMDGVNHPSDRLEHHHHHH | not soluble
MIKTGELKYIEEKIERREDLDEDDIVYMYDEADVNDLGKLARSITDKISGKRVSFVSNIILNYTNICNVRCKFCAFYRKSGEYDAYTMTPDGVIDEIRKYYPYGIRQILIQGGVNPNLDLDYYLTVFRKIRENFTEAGINGLSAAEINFISKKAHLTYEETILKLKEAGLETIPGAGAEILDEDVRVKLGRPRGSGRQWLEIMETAHRLGVKTTATMVYGHIESSMDKARHLISIRNLQKKYHGFLSFTPWNMEPDNTELQKEGILKYRAGAEDVIRNIAISRIVFNYDLPIIQSSWLTNGVEMGQLAILYGANDWGGTIYDEKVIPATGKRVGNLRKEIIIRSIKDLGMVPVERDNLYREIAVYE | not soluble
MILELDCGNSLIKWRVIEGAARSVAGGLAESDDALVEQLTSQQALPVRACRLVSVRSEQETSQLVARLEQLFPVSALVASSGKQLAGVRNGYLDYQRLGLDRWLALVAAHHLAKKACLVIDLGTAVTSDLVAADGVHLGGYICPGMTLMRSQLRTHTRRIRYDDAEARRALASLQPGQATAEAVERGCLLMLRGFVREQYAMACELLGPDCEIFLTGGDAELVRDELAGARIMPDLVFVGLALACPIE | not soluble
MILSMTGFGKHTIQFADKKITATIKSLNSKQFDLSTKISSRYRDRELPLRALVSADIGRGKVDFSLFLEESGSTDVVSQIFDTEKMSSYFFQLKEFGEKMGVEVPAGGWFEQLLRIPGVIQIDEDKEEEIPEDEWAVVIETCRRALDQLIGFREQEGAMLEQVFTEKISNISSLLLQIEQYEPDRIQRIKERIEENLTKISEKDYDKNRFEQEMIYYIEKLDVNEEKHRLRNHLSYFLQTMQGEPGQGKKLSFIAQEIGREINTLGSKSNHVEMQQIVVQMKDELEQIKEQVLNVL | not soluble
MILVDSDVLIAHLRGVVAARDWLVSARKDGPLAISVVSTAELIGGMRTAERREVWRLLASFRVQPATEVIARRAGDMMRRYRRSHNRIGLGDYLIAATADVQDLQLATLNVWHFPMFEQLKPPFAVPGHRPRA | not soluble
MILYDAIMYKYPNAVSRKDFELRNDGNGSYIEKWNLRAPLPTQAELETWWEELQKNPPYEPPDQVELLAQELSQEKLARKQLEELNKTLGNELSDIKLSLLSLKGDYAELEHHHHHH | soluble
MIMEHEYRLEVRGYELDSFGHVNNAVYLNYLEAARWDLCSKLNLTDYNESNELFIVVIETNIKYIRELKLFDKVLIKTELTYEDDYLIFKHNIYNEVTKRKASVAKSKMVLVSKQRIIYEIPQFIKDKLDICAYGLEHHHHHH | not soluble
MIMFNYQQTSQSCVKCGKCIPSCTIYNIHPDEVTSPRGFIDLLGAYQRGELELDKNAKDIFEKCFLCTNCTYVCPNLLPTDQVIENVRAEIAQKFGIAWFKRAYFFLLRNRWLMDWGLEHHHHHH | not soluble
MINHIEEPSSMDAHAVSFRVEKDDLSGAVSWVARNLPTKPTQPVLRAVVITADDEGLEFAGFDYEVSTKVHINADVRQPGRIAVAGKLMSDIIGTLPNKTIEVFVEGTQVQVVCGSSRFELPLIPLDEYPPLPQLPAVTGAIDPNLFTDAVLQVAAAAGRDETLPMLTGIHMEIDGENVTLTATDRFRLALRRFTWSPANPEAKAKLLIPAKNLSDNARSLDSGSTEPVEIAVGTGENIGAEGLFGIHIDNRQTTTRMLDADFPNVSPLLPKVHNAMASVEISALSDAIRRVALVAERNAQIRMQFTRDEVILSAGGSDAGHAEESVPCAFTGDQEFLIAFNSAYLRDGLSVIRTSRVVFGFTEPSRPAIMIPEPETLPEASADGTYPTPDTEFTYLLMPVRLPG | soluble
MINLTHIASSLARAALSDSTKPKMERAINVASHIAGKVALQVTSSLLEQKGLLNERQQKGLSMILKALSGKEPVNNVETHEGGGRFNLARAAFDVASVVWERDKSMHNVMSFLGVSDSKGKMLFSLGKKLADAMAKPEPGKDNSEATNARHAYFSSNLKLNKLMNDLTDQVFNKIR | not soluble
MINSPRVCIQVQSVYIEAQSSPDNERYVFAYTVTIRNLGRAPVQLLGRYWLITNGNGRETEVQGEGVVGVQPLIAPGEEYQYTSGAIIETPLGTMQGHYEMIDENGVPFSIDIPVFRLAVPTLIHMGHHHHHHSH | not soluble
MIPDQRRELMLRQLRKHQVLSVHQLMEMFDCSHMTIRRDIAQLEQEGRAYSVTGGVRIASQVHSEPSHQSKAVVELPHKQGMARLAAGLLHPDMTIYLDAGTSTLEIVPHIIALSGMTVVTNDFGVVNALADAAHVDVIHTGGLLDHPNRSSVGGLAAATLRQLATDVAFMSTSSWDLQRGTTTPSALKVEVKQAAMQSASQTVLVATSSKYGTFGMYKVAGLDQFDTIISDAALAEAAADGIRKQRIELLLAPVGGRSKLEHHHHHH | not soluble
MIPDTEQELINQYLKKISKIPLLTPEEEKELARRAKQGDKEALKKLVESNLRFVVSVAKQYIGYGLPFSELIAAGNLGLLEAAKRFDPDRGVKFISYAVWWIRQAIMQALSQQTGAVRIPLKQSHIINKISHIYGELSKKLEREPSPEEIAEELSKQMIAKELEKELGREPTEEEIEERFKKEGYKITPEEVEKYLQVCRVPLSLDAPVGENEDTFFIDFLSKHGTAEVEEKVIQEVIQKEIDDLLSKLTDKERKVIELRFGLKGNEPKTLREIGEILGLSRERVRQLETRALRKLRSLAMKRHLKDFLS | soluble
MIPRRSCWLILLLNLLNVQSLLDASWWSTVAQLSTALAGHNVKPVCELPGLSPGQAQVCELFKDHMPAVSIGAQNAIQECQRQFTGHRWNCSTHYSTGMLGPIHKMATREAAFTYAILSAGVTHEIGRRCKQGLLTSCGCSDETKPKNVPTDWSWGGCGDNVEYGYKFSRDFIDIREKEHDPKRNHDNGRSLMNRRNNEAGRKILKRHRKPKCKCHGVSGACNMKTCWMQLPSMEQVGKILRNKYDKAIRVQINDRGNLQLLADEATKERKTRALPTDLVFMDDSPDYCRFDRHSGTLGTEGRVCKRGSGGAEGCDSLCCGRGYNTYTQEVKSKCNCKFEWCCKVVCQTCNNVTQVDICK | not soluble
MIPSVSPQQDALTGQPLRVVERDGVHYTLLGTAHISQASVAAVKQEVESGCYDAIAVELDAQRLQALCDPDTLAKLDLIQVIRKGQLALFAANLALAAYQRRLAKQLGIEPGAELKTAVTMARERDLPVHLIDREVGLTFKRASAKLGFLGKMKLGGGLIAGLFAADEVGEEEIEKLKQGDMLEASFGDFANESPELYQTIIAERDRYMATRLREEVNSATPKVLVVVGAGHLTGLAKHLENDTEPPTELRALLEKVQQKKR | not soluble
